Source: IntAct's records for PubMed 10357812

B1: Synaptojanin-2 (Rattus norvegicus (Rat)), O55207-3 (parent)
chain: MALSKGLRLLARLDPTGPSSVLLEARGRGDCLLFEAGAVATLAPEEKEVIKGLYGKPTDAYGCLGELSLKSGGVPLSFLVLVTGCTSVGRIPDAEIYKITGTEFYPLQEEAKEEDRLPALKKILSSGVFYFAWPNDGACFDLTIRAQKQGDDCSEWGTSFFWNQLLHVPLRQHQVNCHDWLLKVICGVVTIRTVYASHKQAKACLISRISCERAGARFLTRGVNDDGHVSNFVETEQAIYMDDGVSSFVQIRGSVPLFWEQPGLQVGSHHLRLHRGLEANAPAFERHMVLLKEQYGQQVVVNLLGSRGGEEVLNRAFKKLLWASCHAGDTPMINFDFHQFAKGRKLEKLENLLRPQLKLHWDDFGVFAKGENVSPRFQKGTLRMNCLDCLDRTNTVQCFIALEVLHLQLESLGLNSKPITDRFVESFKAMWSLNGHGLSKVFTGSRALEGKAKVGKLKDGARSMSRTIQSNFFDGVKQEAIKLLLVGDVYNEESTDKGRMLLDNTALLGLGSNKQNSLSGMLDGKATPRILKAMTERQSEFTNFKRIQIAMGTWNVNGGKQFRSNLLGTTELTDWLLDAPQLSGAVDSQDDGGPADIFAVGFEEMVELSAGNIVNASTTNRKMWGEQLQKAISRSHRYILLTSAQLVGVCLYIFVRPYHVPFIRDVAIDTVKTGMGGKAGNKGAVGIRFQFHSTSFCFICSHLTAGQSQVKERNEDYREITHKLSFPSGRNIFSHDYVFWCGDFNYRIDLTYEEVFYFVKRQDWKKLMEFDQLQLQKSSGKIFKDFHEGTINFGPTYKYDVGSAAYDTSDKCRTPAWTDRVLWWRKKHPYDKTAGELNLLDSDLDGDANIRHTWSPGTLKYYGRAELQASDHRPVLAIVEVEVQEVDVGARERVFQEVSSVQGPLDATVIVNLQSPTLEERNEFPEDLRTELMQTLGNYGTIILVRINQGQMLVTFADSHSALSVLDVDGMKVKGRAVKIRPKTKDWLEGLREELIRKRDSMAPVSPTANSCLLEENFDFTSLDYESEGDVLEDDEDYLADEFGQPVVSDSELGGDDSSDTMSASTPASKSPALAKKKQHPTYKDDADLMTLKLELEVAGNFRHRSPSRSLSVPNRPRPPHPPQRPPPPTGLMVKKSASDASISSGTHGQYSILQTAKLLPGAPQQPPKARTGISKPYNVKQIKTTNAQEAEAAIRCLLEAGGGVPESAPGATPLRNQGSSKPEASLGPPVLPRRPVPRVPTMKKPTLRRTGKIVFCSSSQASQPCSLLQRHEFVRTVAAQRLTPVDASGSSV
partner: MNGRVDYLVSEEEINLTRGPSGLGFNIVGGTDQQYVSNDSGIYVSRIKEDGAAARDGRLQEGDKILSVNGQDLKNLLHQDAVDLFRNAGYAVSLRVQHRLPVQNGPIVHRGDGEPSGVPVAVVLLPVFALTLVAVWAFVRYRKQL

Variants of: B1
Conditions: with syj2b_rat Synj2bp

Effect of a mutation on the interaction, disrupting interaction:
G1290A
S1291A
V1293A
